Measurements as given in paper PMC9482650, “Quantitative fragmentomics allow affinity mapping of interactomes” (Nature Communications, 2022).

Experiments:
Assay in all cases: holdup assay
Set-up in all cases: key: below the threshold = too weak to quantify, mostly under pKd 3.1 to 4
Conditions in all cases: plain residues with an end cap or a label only (N-terminal biotin on a linker: ado-ado)
[1] = biological target: T1, APBA2_1, Q99767
T1 sequence (Q99767 563-664, limits assumed, looked up): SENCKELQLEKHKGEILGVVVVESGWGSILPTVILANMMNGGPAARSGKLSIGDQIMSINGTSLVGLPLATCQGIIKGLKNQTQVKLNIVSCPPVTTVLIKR

[2] = biological target: T2, APBA2_2, Q99767
T2 sequence (Q99767 654-744, limits assumed, looked up): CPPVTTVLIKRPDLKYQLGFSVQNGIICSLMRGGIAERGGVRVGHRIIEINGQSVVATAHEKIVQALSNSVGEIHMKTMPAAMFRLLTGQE

[3] = biological target: T3, ARHGAP21, Q5T5U3
T3 sequence (Q5T5U3 45-169, limits assumed, looked up): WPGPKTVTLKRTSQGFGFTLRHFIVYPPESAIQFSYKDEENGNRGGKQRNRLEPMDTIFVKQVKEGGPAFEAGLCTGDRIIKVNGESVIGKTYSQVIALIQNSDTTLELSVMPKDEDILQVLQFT

[4] = biological target: DLG1_1, Q12959
[5] = biological target: DLG2_3, Q15700
[6] = biological target: T4, FRMPD1, Q5SYB0
T4 sequence (Q5SYB0 52-145, limits assumed, looked up): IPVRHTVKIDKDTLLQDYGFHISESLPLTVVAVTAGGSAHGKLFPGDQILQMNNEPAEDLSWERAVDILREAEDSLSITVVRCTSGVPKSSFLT

[7] = biological target: FRMPD3, Q5JV73
Chain of FRMPD3, Q5JV73 (Q5JV73 12-100): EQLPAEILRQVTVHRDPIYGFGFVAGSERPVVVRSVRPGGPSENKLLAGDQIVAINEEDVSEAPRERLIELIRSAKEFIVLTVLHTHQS

[8] = biological target: GOPC, Q9HD26
[9] = biological target: T5, GRIP1_3, Q9Y3R0
T5 sequence (Q9Y3R0 247-346, limits assumed, looked up): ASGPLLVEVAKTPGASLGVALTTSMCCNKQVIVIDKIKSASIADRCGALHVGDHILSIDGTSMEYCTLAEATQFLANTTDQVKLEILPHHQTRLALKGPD

[10] = biological target: GRIP2_7, Q9C0E4
Chain of GRIP2_7, Q9C0E4 (Q9C0E4 934-1023): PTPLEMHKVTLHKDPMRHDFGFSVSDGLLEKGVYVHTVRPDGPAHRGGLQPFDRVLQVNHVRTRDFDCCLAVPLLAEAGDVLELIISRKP

[11] = biological target: T6, HTRA3, P83110
T6 sequence (P83110 354-453, limits assumed, looked up): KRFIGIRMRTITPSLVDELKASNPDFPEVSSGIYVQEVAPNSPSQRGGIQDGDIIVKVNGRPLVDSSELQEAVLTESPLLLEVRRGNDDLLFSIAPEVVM

[12] = biological target: IL16_3, Q14005
Chain of IL16_3, Q14005 (Q14005 1107-1207): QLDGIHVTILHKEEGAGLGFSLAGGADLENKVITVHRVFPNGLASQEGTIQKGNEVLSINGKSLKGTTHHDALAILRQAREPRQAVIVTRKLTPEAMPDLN

[13] = biological target: Inadl_3, Q8NI35
Chain of Inadl_3, Q8NI35 (Q8NI35 359-469): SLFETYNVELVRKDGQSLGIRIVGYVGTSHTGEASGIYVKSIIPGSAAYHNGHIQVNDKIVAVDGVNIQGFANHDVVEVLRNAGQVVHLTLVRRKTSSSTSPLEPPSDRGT

[14] = biological target: Inadl_5, Q8NI35
Chain of Inadl_5, Q8NI35 (Q8NI35 673-780): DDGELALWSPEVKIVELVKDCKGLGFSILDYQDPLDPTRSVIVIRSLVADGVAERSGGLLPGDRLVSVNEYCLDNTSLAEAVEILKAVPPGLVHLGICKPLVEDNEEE

[15] = biological target: Inadl_9, Q8NI35
Chain of Inadl_9, Q8NI35 (Q8NI35 1530-1615): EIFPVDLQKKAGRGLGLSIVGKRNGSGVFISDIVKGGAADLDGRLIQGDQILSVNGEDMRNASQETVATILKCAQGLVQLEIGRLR

[16] = biological target: LNX1_1, Q8TBB1
Chain of LNX1_1, Q8TBB1 (Q8TBB1 261-371): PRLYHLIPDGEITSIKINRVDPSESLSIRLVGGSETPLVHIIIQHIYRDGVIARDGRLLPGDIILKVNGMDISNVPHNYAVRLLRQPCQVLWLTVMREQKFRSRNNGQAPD

[17] = biological target: T7, LNX2_3, Q8N448
T7 sequence (Q8N448 463-564, limits assumed, looked up): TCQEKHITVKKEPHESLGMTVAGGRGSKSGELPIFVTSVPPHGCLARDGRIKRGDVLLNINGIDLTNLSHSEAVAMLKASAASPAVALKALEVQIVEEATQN

[18] = biological target: T8, LRRC7, Q96NW7
T8 sequence (Q96NW7 1440-1537, limits assumed, looked up): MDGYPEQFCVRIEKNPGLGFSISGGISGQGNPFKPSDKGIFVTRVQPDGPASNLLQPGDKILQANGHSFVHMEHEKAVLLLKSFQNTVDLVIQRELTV

[19] = biological target: MAST1, Q9Y2H9
Chain of MAST1, Q9Y2H9 (Q9Y2H9 962-1065): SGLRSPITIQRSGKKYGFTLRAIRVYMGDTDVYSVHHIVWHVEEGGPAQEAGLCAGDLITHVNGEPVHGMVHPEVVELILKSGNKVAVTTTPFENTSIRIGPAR

[20] = biological target: T9, NHERF3_3, Q5T2W1
T9 sequence (Q5T2W1 238-333, limits assumed, looked up): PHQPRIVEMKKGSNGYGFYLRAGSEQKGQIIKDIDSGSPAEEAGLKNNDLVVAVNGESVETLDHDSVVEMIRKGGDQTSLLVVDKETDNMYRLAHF

[21] = biological target: T10, NHERF3_4, Q5T2W1
T10 sequence (Q5T2W1 373-468, limits assumed, looked up): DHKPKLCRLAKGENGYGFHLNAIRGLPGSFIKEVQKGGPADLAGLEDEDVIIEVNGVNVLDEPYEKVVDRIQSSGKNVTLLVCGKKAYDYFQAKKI

[22] = biological target: T11, PDZD2_2, O15018
T11 sequence (O15018 329-429, limits assumed, looked up): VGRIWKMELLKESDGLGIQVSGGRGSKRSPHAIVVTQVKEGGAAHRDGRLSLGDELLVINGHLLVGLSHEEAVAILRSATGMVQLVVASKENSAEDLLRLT

[23] = biological target: T12, PDZD7_3, Q9H5P4
T12 sequence (Q9H5P4 857-944, limits assumed, looked up): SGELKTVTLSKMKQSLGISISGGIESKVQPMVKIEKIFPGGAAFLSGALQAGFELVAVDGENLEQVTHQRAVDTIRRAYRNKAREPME

[24] = biological target: TJP1_3, Q07157
Chain of TJP1_3, Q07157 (Q07157 416-512): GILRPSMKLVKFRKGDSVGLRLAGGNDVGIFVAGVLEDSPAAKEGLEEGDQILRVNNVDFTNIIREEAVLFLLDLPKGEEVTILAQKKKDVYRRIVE

[25] = biological target: T13, TJP3_3, O95049
T13 sequence (O95049 375-456, limits assumed, looked up): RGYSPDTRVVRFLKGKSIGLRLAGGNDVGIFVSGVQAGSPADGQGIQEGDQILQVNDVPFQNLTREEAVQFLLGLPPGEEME

B1: RCN2, Q14257 (peptide)
chain: HDDYFYHDEL
In the case of B1, the pKd [1] is reported as “below the threshold”, the pKd [2] is reported as “below the threshold” and the pKd [3] is reported as 4.17. For the same binder, the pKd [4] was “below the threshold”, the pKd [5] was “below the threshold” and the pKd [6] was “below the threshold”. For the same binder, the pKd [7] was “below the threshold”, the pKd [8] was 3.59 and the pKd [9] was “below the threshold”. The pKd [10] was “below the threshold”, the pKd [11] was “below the threshold” and the pKd [12] was “below the threshold”. For the same binder, the pKd [13] was 3.85, the pKd [14] was “below the threshold” and the pKd [15] was “below the threshold”. The pKd [16] was “below the threshold”, the pKd [17] was “below the threshold” and the pKd [18] was “below the threshold”. For the same binder, the pKd [19] was 4.35, the pKd [20] was “below the threshold” and the pKd [21] was “below the threshold”. The pKd [22] was “below the threshold”, the pKd [23] was “below the threshold” and the pKd [24] was “below the threshold”. The pKd [25] was “below the threshold”.

B2: CD46, P15529 (peptide)
chain: THREVKFTSL
With B2 the pKd [1] was “below the threshold”, the pKd [2] was “below the threshold” and the pKd [3] was “below the threshold”. For the same binder, the pKd [4] was “below the threshold”, the pKd [5] was 4.38 and the pKd [6] was “below the threshold”. For the same binder, the pKd [7] was “below the threshold”, the pKd [8] was 4.05 and the pKd [9] was “below the threshold”. The pKd [10] was “below the threshold”, the pKd [11] was “below the threshold” and the pKd [12] was “below the threshold”. For the same binder, the pKd [13] was “below the threshold”, the pKd [14] was “below the threshold” and the pKd [15] was “below the threshold”. The pKd [16] was 3.5, the pKd [17] was “below the threshold” and the pKd [18] was “below the threshold”. The pKd [19] was 4.81, the pKd [20] was “below the threshold” and the pKd [21] was 4.6. The pKd [22] was 4.26, the pKd [23] was 4.75 and the pKd [24] was “below the threshold”. For the same binder, the pKd [25] was “below the threshold”.

B3: PALLS, Q8WX93;Q8WX93-1 (peptide)
chain: NTALVESEDL
B3 was tested, and the pKd [1] was “below the threshold”, the pKd [2] was “below the threshold” and the pKd [3] was “below the threshold”. For the same binder, the pKd [4] was “below the threshold”, the pKd [5] was “below the threshold” and the pKd [6] was “below the threshold”. The pKd [7] was “below the threshold”, the pKd [8] was “below the threshold” and the pKd [9] was “below the threshold”. For the same binder, the pKd [10] was “below the threshold”, the pKd [11] was “below the threshold” and the pKd [12] was “below the threshold”. The pKd [13] was “below the threshold”, the pKd [14] was “below the threshold” and the pKd [15] was “below the threshold”. The pKd [16] was “below the threshold”, the pKd [17] was “below the threshold” and the pKd [18] was “below the threshold”. For the same binder, the pKd [19] was 4.56, the pKd [20] was “below the threshold” and the pKd [21] was “below the threshold”. For the same binder, the pKd [22] was “below the threshold”, the pKd [23] was “below the threshold” and the pKd [24] was “below the threshold”. For the same binder, the pKd [25] was “below the threshold”.

B4: SCN4B, Q8IWT1 (peptide)
chain: KAEEKPPSKV
For B4, the pKd [1] was “below the threshold”, the pKd [2] was “below the threshold” and the pKd [3] was “below the threshold”. The pKd [4] was “below the threshold”, the pKd [5] was “below the threshold” and the pKd [6] was “below the threshold”. The pKd [7] was “below the threshold”, the pKd [8] was “below the threshold” and the pKd [9] was “below the threshold”. For the same binder, the pKd [10] was “below the threshold”, the pKd [11] was “below the threshold” and the pKd [12] was “below the threshold”. The pKd [13] was “below the threshold”, the pKd [14] was “below the threshold” and the pKd [15] was 3.8. The pKd [16] was 3.49, the pKd [17] was “below the threshold” and the pKd [18] was “below the threshold”. For the same binder, the pKd [19] was 3.69, the pKd [20] was “below the threshold” and the pKd [21] was “below the threshold”. The pKd [22] was 3.95, the pKd [23] was “below the threshold” and the pKd [24] was “below the threshold”. For the same binder, the pKd [25] was “below the threshold”.

B5: NRXN3, Q9HDB5 (peptide)
chain: QKNKDREYYV
With B5 the pKd [1] was “below the threshold”, the pKd [2] was “below the threshold” and the pKd [3] was 4.2. For the same binder, the pKd [4] was “below the threshold”, the pKd [5] was “below the threshold” and the pKd [6] was “below the threshold”. The pKd [7] was 4.03, the pKd [8] was “below the threshold” and the pKd [9] was “below the threshold”. The pKd [10] was 4.89, the pKd [11] was 4.84 and the pKd [12] was “below the threshold”. For the same binder, the pKd [13] was 4.14, the pKd [14] was 4.64 and the pKd [15] was 4.56. The pKd [16] was 3.65, the pKd [17] was “below the threshold” and the pKd [18] was “below the threshold”. The pKd [19] was “below the threshold”, the pKd [20] was “below the threshold” and the pKd [21] was “below the threshold”. The pKd [22] was 4.56, the pKd [23] was “below the threshold” and the pKd [24] was “below the threshold”. It also gave a pKd [25] of 3.98.
